According to the RNAGym collection of RNA variant scans (doi:10.7554/elife.90254):

B1: LINE1-mini (parent)
chain: GGCAGAGCUCAACACAGCGUGGCAAAGUGGCUGUGGCUAGACUGCC

Variants of: B1
Test: self-cleavage, relative activity (ratio to wild type); higher = more cleavage; in vitro, sequencing; the parent is a self-cleaving ribozyme

First: GGCAGAGCUCAACACAGCGUGGCAAAAUGGCUGUGGCUUGACUGCC [G27A A39U]
Second: GGCAGAGCUCAACACAGCGUGGCAACGUGGCUGUGGCUAGACUGCU [A26C C46U]
The self-cleavage of the first is lower: 0.59 for the first, 1.46 for the second.

First: GGCAGAGCUCAGCACAGCGUGGCAAAGUGGCUAUGGCUAGACUGCC [A12G G33A]
Second: GGCAGAGCUCAACACAGCGUGGCAAAAUGUCUGUGGCUAGACUGCC [G27A G30U]
The self-cleavage of the first is lower: 0.07 for the first, 1.61 for the second.

First: GGCAGAGCGCAACACAGCGUGGCAAAGUGACUGUGGCUAGACUGCC [U9G G30A]
Second: GGCAGAGCUCAACACAGGGUGGCAAAGUGGCUGUGGCGAGACUGCC [C18G U38G]
The self-cleavage of the first is higher: 0.09 for the first, 0.02 for the second.

Going from GGCAGAGCUCGACACAGCGUGGCAGAGUGGCUGUGGCUAGACUGCC [A11G A25G] to GGCAGAGCUCAACACAGCGUGGCAAAGUGUCUGUGGCUAGAAUGCC [G30U C42A], the self-cleavage rises from 0.05 to 0.12.

Going from GGCUGAGCUCAACACAGCGUGGCAAAGUGGCUGUGGCCAGACUGCC [A4U U38C] to GACAGAGCUCAACCCAGCGUGGCAAAGUGGCUGUGGCUAGACUGCC [G2A A14C], the self-cleavage falls from 0.17 to 0.15.

First: GGCACAGCUCAACACAGCGUGGCAAAGUGGCGGUGGCUAGACUGCC [G5C U32G]
Second: GGCAUAGCUCAACACAGCGUGGCAAAGUGGAUGUGGCUAGACUGCC [G5U C31A]
The self-cleavage of the first is higher: 0.07 for the first, 0.04 for the second.

First: GGGAGUGCUCAACACAGCGUGGCAAAGUGGCUGUGGCUAGACUGCC [C3G A6U]
Second: GGCAGAGCUCCACACAGCGUGGCAAACUGGCUGUGGCUAGACUGCC [A11C G27C]
The self-cleavage of the first is higher: 0.79 for the first, 0.04 for the second.

Compared with GGGAGAGCUCAACACAGCGUGGCAAAGUGGCUGUGGCUAUACUGCC [C3G G40U], GGCAGACCUCAACACAGCGUCGCAAAGUGGCUGUGGCUAGACUGCC [G7C G21C] is lower in self-cleavage: 0.13 for the first, 0.08 for the second.

Compared with GGCAGACCUCAACACAGCGUGGCAAAGUCGCUGUGGCUAGACUGCC [G7C G29C], GGCUGAGCUCAACACAGCGUGGCAAAGUGGCUGUGGCUGGACUGCC [A4U A39G] is higher in self-cleavage: 0.05 for the first, 0.07 for the second.

Going from GGCAGAGCUCAACACAGCGUCGCAAAGUGGCUGUGGCAAGACUGCC [G21C U38A] to GGCAGAGCUCAACACAGCGUGGCAAAGUUGCUGUGGAUAGACUGCC [G29U C37A], the self-cleavage falls from 0.21 to 0.13.

Going from GGCAGAGCUCAACACAGCGUCGCAAAGUGGCUGUAGCUAGACUGCC [G21C G35A] to GGCAGACCUCAACACAGCGUGGCAAAGUGGCUGUGCCUAGACUGCC [G7C G36C], the self-cleavage falls from 0.16 to 0.1.

First: GGCAGAGCUCAACGCAGCGUGGCAAAGUAGCUGUGGCUAGACUGCC [A14G G29A]
Second: GGCAGAGAUCAACACAGCGUGGCAAAGUGGCUGUGGCCAGACUGCC [C8A U38C]
The self-cleavage of the first is higher: 0.78 for the first, 0.2 for the second.

Going from GGCAGAGCUCAACAUAGCGUGGCAAAGUGGCUGUGGCUAGAGUGCC [C15U C42G] to GGCAGAGUCCAACACAGCGUGGCAAAGUGGCUGUGGCUAGACUGCC [C8U U9C], the self-cleavage falls from 0.09 to 0.06.

First: GGCAGAGCUCAACUAAGCGUGGCAAAGUGGCUGUGGCUAGACUGCC [A14U C15A]
Second: GGCAGAACUCAACACAGCGUGGCAGAGUGGCUGUGGCUAGACUGCC [G7A A25G]
The self-cleavage of the first is higher: 0.16 for the first, 0.12 for the second.

First: GGCAGAGCUCAACACAGCGUGGCAAAGUGGCUGUGAUUAGACUGCC [G36A C37U]
Second: GGCAGAGCUCAACACAGCGUGGCAAGGUGGCUGUGGCUAGACCGCC [A26G U43C]
The self-cleavage of the first is higher: 0.31 for the first, 0.05 for the second.

Going from GGCAGAUCUUAACACAGCGUGGCAAAGUGGCUGUGGCUAGACUGCC [G7U C10U] to GGCAGAGCUCAACACAGCGUGGCAAAGUGGAUGUGGCUAGACUGCA [C31A C46A], the self-cleavage rises from 0.04 to 0.13.

Compared with GGCAGAGCGCAACACAGCGUGGCAGAGUGGCUGUGGCUAGACUGCC [U9G A25G], GGCAGAGCUCAACACAGCGUGGCAUAGUGGGUGUGGCUAGACUGCC [A25U C31G] is higher in self-cleavage: 0.06 for the first, 0.1 for the second.

First: GGCAGAGCUCAACACAGCGUGGCAAAGUGGAUGUGGCAAGACUGCC [C31A U38A]
Second: GGCAGUGCUCAACACAGCGUGGCAAAGUGGCUGUGGCUUGACUGCC [A6U A39U]
The self-cleavage of the first is lower: 0.12 for the first, 0.35 for the second.

First: GGCAGAGCUCAUCACAGCGUGGCAAAGUGGCUGUGGCUAGACUGCG [A12U C46G]
Second: GGCAGAUCUCAACACAGCGUGGCAAAGUGGCUGUGGGUAGACUGCC [G7U C37G]
The self-cleavage of the first is higher: 0.45 for the first, 0.01 for the second.

Compared with GGCAGUGCUCAACACAGCGUGGCAAAGUGGCUGCGGCUAGACUGCC [A6U U34C], GGCAGAGCUCAACACAGCGUGGCAAAGUGGCUGUGGCACGACUGCC [U38A A39C] is higher in self-cleavage: 0.12 for the first, 0.49 for the second.

Compared with GGCAGAGCUCAACACAGGGUGGCAAAGUGGCUGUUGCUAGACUGCC [C18G G35U], GGCAGAGCUCAACACAGCGUGGCAAAGGGGCUGUGCCUAGACUGCC [U28G G36C] is lower in self-cleavage: 0.08 for the first, 0.05 for the second.

Compared with GGCAGAGCUCAACAUAGCGUGGCAAAGUGGCAGUGGCUAGACUGCC [C15U U32A], GGCAGAGCUCAACACAGCGGGGCAAAGUGGAUGUGGCUAGACUGCC [U20G C31A] is lower in self-cleavage: 0.09 for the first, 0.07 for the second.

Compared with GGCAAAGCUCAACACAGCGUAGCAAAGUGGCUGUGGCUAGACUGCC [G5A G21A], GGCAGAGCUCAAUACAGCGUGGCAAAGUGGCUGUGGCUAGACGGCC [C13U U43G] is higher in self-cleavage: 0.25 for the first, 2.25 for the second.

Going from GGCAGAGCUCAACACAGCGUGGCAAAGUAGCUGUGGCUAAACUGCC [G29A G40A] to GGCAGAGCUAAACACAGCGUGGCAAAGUCGCUGUGGCUAGACUGCC [C10A G29C], the self-cleavage falls from 0.11 to 0.04.

First: GGCAAAGCUCAACACAGCGCGGCAAAGUGGCUGUGGCUAGACUGCC [G5A U20C]
Second: GGCAGAGCUCAACUCAGCAUGGCAAAGUGGCUGUGGCUAGACUGCC [A14U G19A]
The self-cleavage of the first is lower: 0.06 for the first, 0.53 for the second.

Going from GGCAGUGCUCAACACAGCGUGGCAAAGUGGCUGUGGCUAGACUCCC [A6U G44C] to GGCAGAGCUUAACACAGCGUGGCAAAGUGGCUGUGGCUAGACUGCG [C10U C46G], the self-cleavage falls from 0.75 to 0.32.

Compared with GGCACAGCUCAACACAGCGAGGCAAAGUGGCUGUGGCUAGACUGCC [G5C U20A], GUCAGAGCUCAACACAGCGUGGCAUAGUGGCUGUGGCUAGACUGCC [G2U A25U] is higher in self-cleavage: 0.04 for the first, 0.08 for the second.

First: GGCAGAGCUCAACCCAGGGUGGCAAAGUGGCUGUGGCUAGACUGCC [A14C C18G]
Second: GGCAGAGCUGAACACGGCGUGGCAAAGUGGCUGUGGCUAGACUGCC [C10G A16G]
The self-cleavage of the first is lower: 0.05 for the first, 0.06 for the second.
